± gives the standard error.
B1: library; numbered along this chain (parent)
chain: MATDAALRRLLRLHRTEIAVAVDSAFPLLHALADHDVVPEDKFQETLHLKEKEGCPQAFHALLSWLLTQDSTAILDFWRVLFKDYNLERYGRLQPILDSFPKDVDLSQPRKGRKPPAVPKALVPPPRLPTKRKASEEARAAAPAALTPRGTASPGSQLKAKPPKKPESSAEQQRLPLGNGIQTMSASVQRAVAMSSGDVPGARGAVEGILIQQVFESGGSKKCIQVGGEFYTPSKFEDSGSGKNKARSSSGPKPLVRAKGAQGAAPGGGEARLGQQGSVPAPLALPSDPQLHQKNEDECAVCRDGGELICCDGCPRAFHLACLSPPLREIPSGTWRCSSCLQATVQEVQPRAEEPRPQEPPVETPLPPGLRSAGEEVRGPPGEPLAGMDTTLVYKHLPAPPSAAPLPGLDSSALHPLLCVGPEGQQNLAPGARCGVCGDGTDVLRCTHCAAAFHWRCHFPAGTSRPGTGLRCRSCSGDVTPAPVEGVLAPSPARLAPGPAKDDTASHEPALHRDDLESLLSEHTFDGILQWAIQSMARPAAPFPS

Variants of: B1
Assay: AIRE transcriptional activation functional score (insulin promoter-GFP; nonsense median 0, synonymous median 1) (normalised score); higher = higher AIRE activity (more reporter activation)
Details: with insulin promoter-GFP reporter in HEK293
Method in brief: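 Flp-In T-REx HEK293 landing-pad cells carrying an insulin core promoter-GFP reporter received codon-optimized AIRE NNN-codon libraries (three regions) through Bxb1 recombinase. Sorting of mCherry+, BFP− integrants took place at day 7, followed by 7 days of expansion and tile-sequencing of top 10% GFP and unselected integrant populations. A functional score was derived from select versus non-select variant enrichment with wild type subtracted. Values from variants reaching 10 counts per million in non-select were set to nonsense median 0 and synonymous median 1 and averaged over biological replicates.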

AIRE transcriptional activation functional score: each site, then its substitutions
G369: S 0.939 ± 0.38, T 0.912 ± 0.61, Y 0.617 ± 0.046, R 0.772 ± 0.1, E 1.68 ± 0.059, D -0.344 ± 0.25, V 0.854 ± 0.23, I 1.18 ± 0.37, F 1.46 ± 0.06, N 1.1 ± 0.061, C 1.25 ± 0.12, W 0.914 ± 0.18, A 0.861 ± 0.17, K 1.35 ± 0.088, L 1.46 ± 0.17, Q 1.43 ± 0.18
R371: V 1.27 ± 0.094, P 0.614 ± 0.2, I 0.173 ± 0.21, D 1 ± 0.1, Y 1.39 ± 0.15, T 0.753 ± 0.3, L 1.5 ± 0.095, G 1.55 ± 0.068, M -0.128 ± 0.13, S 0.653 ± 0.24, W 1.77 ± 0.072
E376: W 1.23 ± 0.12, L 1.17 ± 0.17, Q 1.62 ± 0.057, N 1.32 ± 0.077, D 0.34 ± 0.18, Y 0.702 ± 0.3, R 1.12 ± 0.2, A 0.899 ± 0.079, H 1.36 ± 0.072, F 0.443 ± 0.22, S 1.08 ± 0.19, T 0.984 ± 0.57, K 1.15 ± 0.064, V 1.24 ± 0.12, P 1.25 ± 0.16, G 0.776 ± 0.12, I 1.36 ± 0.14
L370: F 0.823 ± 0.19, T 1.03 ± 0.069, P 1.08 ± 0.096, S 1.32 ± 0.2, A 0.668 ± 0.14, K 0.92 ± 0.34, D 0.434 ± 0.36, W 0.504 ± 0.13, G 1.08 ± 0.16, C 1.12 ± 0.091, Q 0.241 ± 0.24, I 1.25 ± 0.1, R 0.586 ± 0.23, H 0.944 ± 0.2, E -0.238 ± 0.062, V 1.03 ± 0.26
E375: T 0.785 ± 0.1, C 0.539 ± 0.2, N 1.89 ± 0.1, F 1.55 ± 0.084, L 1.47 ± 0.35, H 1.6 ± 0.037, D 1.04 ± 0.11, A 1.18 ± 0.045, Q 1.05 ± 0.13, G 0.999 ± 0.19, I 1.08 ± 0.42, K 1.35 ± 0.14, S 0.907 ± 0.36, R 1 ± 0.32, Y 1.51 ± 0.059, V 1.47 ± 0.34, P 1.21 ± 0.16
G374: H 0.816 ± 0.16, P 1.1 ± 0.11, K 0.524 ± 0.58, T 0.972 ± 0.39, I 1.18 ± 0.31, C 1.55 ± 0.21, S 1.24 ± 0.3, D 0.16 ± 0.23, F 2.03 ± 0.12, R 1.31 ± 0.35, W 1.65 ± 0.042, V 1.07 ± 0.13, L 1.29 ± 0.14, Y 0.519 ± 0.61, A 1.33 ± 0.14
P368: S 1.27 ± 0.2, K 1.38 ± 0.13, H 1.18 ± 0.18, Q 0.776 ± 0.12, L 1.01 ± 0.23, F 1.63 ± 0.14, A 1.2 ± 0.26, C 1.55 ± 0.16, R 1.04 ± 0.22, N 1.58 ± 0.068, I 1.29 ± 0.21, T 0.983 ± 0.41, V 1.13 ± 0.21, D 0.975 ± 0.089, E 0.965 ± 0.12, G 1.05 ± 0.075
P367: W 1.97 ± 0.069, M 0.302 ± 0.086, R 1.06 ± 0.38, N 0.956 ± 0.17, Y 1.39 ± 0.13, Q 1.26 ± 0.22, T 1.17 ± 0.21, S 1.13 ± 0.32, V 0.854 ± 0.29, K 1.04 ± 0.03, L 0.763 ± 0.36
A373: R 0.736 ± 0.065, I 0.836 ± 0.18, K 1.02 ± 0.2, V 0.766 ± 0.28, W -0.241 ± 0.043, E 1.28 ± 0.12, H 1.23 ± 0.066, F 0.264 ± 0.082, T 1.63 ± 0.12, D 1.02 ± 0.22, P 1.13 ± 0.15, L 0.776 ± 0.5, G 0.987 ± 0.39, S 0.969 ± 0.32
V377: F 1.15 ± 0.11, M 0.944 ± 0.28, L 1.19 ± 0.34, R 1.09 ± 0.4, E 1.81 ± 0.17, Q 0.854 ± 0.047, W 1.82 ± 0.044, N 1.2 ± 0.1, C 1.32 ± 0.11, P 1.28 ± 0.077, S 0.916 ± 0.21, D 0.248 ± 0.3, T 1.37 ± 0.17, A 0.734 ± 0.31, K 0.952 ± 0.045, I 1.15 ± 0.11, G 1.16 ± 0.28
S372: L 0.938 ± 0.21, C 1.31 ± 0.069, I 0.653 ± 0.77, G 0.89 ± 0.1, H 1.13 ± 0.12, A 1.16 ± 0.27, W 1.62 ± 0.065, D 1.06 ± 0.14, F 1.02 ± 0.32, E 1.3 ± 0.15, K 1.48 ± 0.092, R 1.16 ± 0.086, N 1.2 ± 0.039, V 1.33 ± 0.1, P 1.07 ± 0.29, Y 1.25 ± 0.4, T 0.951 ± 0.35

Reference: the supplement of paper PMC12667976
